The record followed here is patent publication US20140186365A1.

The chains are these.
B1: VH-1C5 (protein)
VH: QVQLQQSGPGLVKPSQTLSLTCAISGDSVSSNSAAWNWIRQSPSRGLEWLGRTYYRSKWYNDYAVSVKSRITINPDTSKNQFSLQLNSVTPEDTAVYYCARTPSTGTLDCWGRGTLVTVSSSASGAGS
B2: VH-3C2 (protein)
VH: QVQLQQSGPGLVKPSQTLSLTCAISGDSVSSKSAAWNWIRQSPSRGLEWLGRTYYRSKWYNDYVVSLRSRITVSPDTSKNQFSLQLNSVTPEDTAMYYCARTRGHIDLWGRGTLVTVSSSASGAGS
B3: VH-3B11 (protein)
VH: EVQLVQSGAEVKKPGESLKISCKGSGYSFTSYWIGWVRQMPGKGLEWMGIVYPGDSDTRYSPSFQGQVTISAGKSISTAYLQWSSLKASDTAMYYCARPSMGATTWISAFDIWGQGTTVTVSSSASGAGS
B4: VH-3E11 (protein)
VH: QVQLQQSGPGLVKPSQTLSLTCAISGDSVSGNSAAWNWIRQSPSRGLEWLGRTYYRSKWYIGYAASLQSRLAINADTSKNQLSLRLSSVTPEDTAVYYCVGRHYSGHSGAFDTWGHGTMVTVSSSASGAGS
B5: VH-4D6 (protein)
VH: EVQLVQSGAEVKKPGESLKISCKGSGYSFTSYWIGWVRQMPGKGLEWMGIIYPGDSDTRYSPSFQGQVTISADKSISTAYLQWSSLKASDTAMYYCARLDCSGGSCYYYYYGMDVWGQGTTVTVSSSASGAGS

The target in the first assay is Human Serum Albumin (human) (UniProt P02768). The assay is described as follows: BLI (Octet Red), HSA on sensor tips, VH domain in solution, 1:1 fit.
UniProt P02768, sequence (P02768 25-609 limits assumed): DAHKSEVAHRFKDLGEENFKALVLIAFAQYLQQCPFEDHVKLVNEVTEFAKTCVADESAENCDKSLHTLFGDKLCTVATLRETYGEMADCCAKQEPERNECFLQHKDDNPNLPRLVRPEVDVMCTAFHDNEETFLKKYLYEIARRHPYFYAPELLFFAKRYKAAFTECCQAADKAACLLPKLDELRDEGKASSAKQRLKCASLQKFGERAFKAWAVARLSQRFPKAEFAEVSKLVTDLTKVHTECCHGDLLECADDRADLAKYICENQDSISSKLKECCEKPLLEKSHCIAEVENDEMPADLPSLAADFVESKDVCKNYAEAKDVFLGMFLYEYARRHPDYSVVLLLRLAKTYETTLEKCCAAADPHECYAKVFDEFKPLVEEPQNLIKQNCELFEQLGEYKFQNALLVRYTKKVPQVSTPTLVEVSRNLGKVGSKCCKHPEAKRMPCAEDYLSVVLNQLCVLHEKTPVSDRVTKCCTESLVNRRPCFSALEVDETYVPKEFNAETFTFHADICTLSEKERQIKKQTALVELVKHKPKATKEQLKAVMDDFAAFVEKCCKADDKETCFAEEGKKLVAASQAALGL
Take B1: the Kd was determined as 18.2 nM, the koff stood at 9.58e-05 s⁻¹ and the kon worked out at 5260 M⁻¹ s⁻¹.
With B2, the Kd turned out to be 23.8 nM, the koff came to 0.000155 s⁻¹ and the kon was determined as 6500 M⁻¹ s⁻¹.
As for B3, the Kd came out at 18.1 nM, the koff is 0.000126 s⁻¹ and the kon was determined as 6980 M⁻¹ s⁻¹.
In turn, B4 displayed a Kd of 23.6 nM, a koff of 0.000133 s⁻¹ and a kon of 5630 M⁻¹ s⁻¹.
Consider B5, for which the Kd was found to be 13.3 nM, the koff was 0.000141 s⁻¹ and the kon worked out at 10600 M⁻¹ s⁻¹.

For the next assay, the target named is Mouse Serum Albumin (mouse) (UniProt P07724). The assay is described as follows: BLI (Octet Red), MSA on sensor tips, VH domain in solution, 1:1 fit.
UniProt P07724, sequence (P07724 25-608 limits assumed): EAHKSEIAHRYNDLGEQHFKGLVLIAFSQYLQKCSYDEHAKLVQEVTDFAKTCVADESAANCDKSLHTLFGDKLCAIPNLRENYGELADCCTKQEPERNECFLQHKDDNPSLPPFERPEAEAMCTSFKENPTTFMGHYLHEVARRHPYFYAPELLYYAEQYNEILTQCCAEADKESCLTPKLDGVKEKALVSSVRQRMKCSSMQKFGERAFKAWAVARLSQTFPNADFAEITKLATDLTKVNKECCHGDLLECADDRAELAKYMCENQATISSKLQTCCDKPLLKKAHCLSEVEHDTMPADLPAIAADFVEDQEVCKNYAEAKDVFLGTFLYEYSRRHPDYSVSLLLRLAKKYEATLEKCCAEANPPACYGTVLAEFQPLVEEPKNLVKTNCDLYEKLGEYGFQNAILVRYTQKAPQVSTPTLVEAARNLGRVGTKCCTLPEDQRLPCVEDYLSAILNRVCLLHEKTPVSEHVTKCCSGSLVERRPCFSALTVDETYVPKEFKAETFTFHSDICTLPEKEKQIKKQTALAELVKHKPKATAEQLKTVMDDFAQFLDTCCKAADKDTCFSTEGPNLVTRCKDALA
Molecule B1 displayed a Kd of 6.32 nM, a koff of 5.42e-05 s⁻¹ and a kon of 8570 M⁻¹ s⁻¹.
On to B2, for which the Kd is 31.8 nM, the koff worked out at 0.000218 s⁻¹ and the kon turned out to be 6870 M⁻¹ s⁻¹.
As for B3, the Kd worked out at 9.61 nM, the koff is 7.88e-05 s⁻¹ and the kon worked out at 8200 M⁻¹ s⁻¹.
In turn, B4 came in with a Kd of 39.3 nM, a koff of 0.000226 s⁻¹ and a kon of 5750 M⁻¹ s⁻¹.
For B5 the same measures were 12.6 nM, 0.000105 s⁻¹ and 8340 M⁻¹ s⁻¹.
